Residue numbers refer to the chain shown, from its start. Numbers in names are those of the source. Where “and” joins values, the source holds several entries; their conditions need not be identical. Equal values may be shown once. Entries after “also recorded” stand apart in the source; their conditions may differ. Read-outs that look alike come from different tables or passages of the source.

Assay [1] concerns AAR. To be noted: cited from earlier work.
Assay [2] relates to AAR. The conditions noted are these: ITC. From the text: To verify this assumption, we measured the binding affinity of K^+ ions with AAR, using ITC method.
AAR to perform all the experiments. The small organic molecule, such as stearoyl-CoA, can be used in high concentration, which is more favorable for either co-crystallization with AAR(-ADO) or soaking with the AAR(-ADO) crystals. In comparison, stearoyl-ACP is an 80-residue protein with a stearoyl chain linked to the 4’-phosphopanthetheine on a Ser residue, while the crystallization of protein-protein complexes (AAR-ACP) is much difficult than that of protein-ligand
(AAR-stearoyl-CoA) complexes.
ACP protein covalently linked with stearic chain (stearoyl-ACP), according to the […]
Considering the similar chemical structure of the acyl part of acyl-ACP and acyl-CoA, and the time-consuming experimental processes for obtaining the stearoyl-ACP protein and […]
In our originally submitted manuscript, we supposed that Mg2+ ion binds with AAR near its active site, but we […]
performed ITC experiment to confirm whether Mg2+ ions bind with AAR.
4. The authors assumed that Mg2+ and K+ ions bind to AAR in the crystals. However,
Therefore, it is required to confirm that Mg2+ and/or K+ really bind to AAR using […]
We have now performed the ITC
A general note: Isothermal titration calorimetry measures the heat released or taken up as one component is titrated into another.

Another assay deals with T1, AAR-wt (Synechococcus elongatus, UniProt Q54765).
T1 construct: gene Synpcc7942_1594; full length (341 residues), C-terminal His-tag removed by TEV protease; expressed in E. coli BL21(DE3) with chaperone plasmid pG-KJE8
As to the kind of experiment: Isothermal titration calorimetry, stearoyl-CoA (650 uM) titrated into 30 uM AAR in 25 mM Tris-HCl pH 7.6, 1 mM TCEP, without KCl. In kind it is binding. To be noted: read-out: KD value (µM), AAR (−K+).

For assay [3] the following is noted: for heptadecane product yield of wild-type ADO compared with triple mutant E196A/E200A/D201A of ADO: both incubated with AAR.
Description: For measuring the enzymatic activity of AAR, the AAR protein at the concentration of 20 µM was mixed with 2 mM NADPH and 0.5 mM stearoyl-CoA in a 100 µL reaction buffer containing 20 mM HEPES pH 7.5, 200 mM KCl, 0.5 mM MgCl2, and 0.5 mM TCEP. […] The ferrodoxin and FNR are recombinant proteins from cyanobacterial strains Synechocystis sp. […] PCC 7942, respectively, and were added into the reaction buffer for supplying electrons for the reduction of ADO. The mixture was incubated at 30 °C for 5 h. The produced octadecanal and heptadecane were extracted by addition of an equal volume of ethyl acetate (Sigma Aldrich, HPLC grade) and centrifuged at 13,000 × g for 15 min at room temperature. The extraction step was repeated for three times. The extracted supernatant was pooled together, dried with nitrogen gas, and then resolved in 20 µL ethyl acetate for the GC-MS measurement.
The concentration of octadecanal and heptadecane was measured using an Agilent 7890 A gas chromatograph coupled with an Agilent 7000B QQQ mass spectrometer. A total of 2 µL sample was loaded with the helium as the carrier gas onto the chromatographic column HP-5ms (30 mM × 0.25 mM ID, 0.25 μm; Agilent) at the flow rate of 1.3 ml min^−1. The injector temperature maintained at 300 °C with spotless mode. The GC oven settings were as follows: initial temperature 75 °C, held for 5 min, then at 40 °C min^−1, increased to 325 °C and held for 5 min. Ionization mode of EI (70 eV, 230 °C) and full scan of 50–550 m/z were chosen for MS detection. The standard curve was plotted based on the measuring of the commercial octadecanal and heptadecane (Sigma Aldrich) at a gradient concentration (from 3.125 to 75 µg mL^−1). Data were acquired and processed using MassHunter Workstation Software and the NIST database.
In assay [4] the target is T2, aldehyde-deformylating oxygenase from Synechococcus elongatus PCC 7942, wild type, His-tag removed (Synechococcus elongatus PCC 7942, UniProt Q54764 1-231).
T2 chain: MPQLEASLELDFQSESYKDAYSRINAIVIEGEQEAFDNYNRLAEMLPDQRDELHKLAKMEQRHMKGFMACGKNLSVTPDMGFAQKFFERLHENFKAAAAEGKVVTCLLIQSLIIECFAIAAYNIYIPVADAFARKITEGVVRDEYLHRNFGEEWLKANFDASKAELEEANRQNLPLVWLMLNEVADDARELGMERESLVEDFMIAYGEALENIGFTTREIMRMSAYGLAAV
The assay is described as follows: ITC.

Assay [5] is described as follows: Enzymatic activity assay of AAR toward stearoyl-CoA (octadecanal by GC-MS). In kind it is biochemical, Synechococcus elongatus PCC 7942. An excerpt: PCC 6803 and Synechocystis sp. […] The extraction step was repeated for three times.
Another assay has as its target T3, ADO (Synechococcus elongatus, UniProt Q54764).
T3 construct: His6-tag peptide (C, cleaved yes); made in house; host or cells: E. coli BL21(DE3), without chaperone plasmid
T3 sequence (Q54764 1-231): T2 chain
As to the kind of experiment: ITC binding of AAR (wild type and mutants) with ADO. Also noted: species or system Synechococcus elongatus PCC 7942.

For assay [6] the following is noted: ITC, +K+.
Description: (§1) The binding affinity of AAR with ADO or stearoyl-CoA was measured by isotheral titration calorimetry (ITC) using a MicroCal Auto-ITC200 microcalorimeter (GE Healthcare Bio-sciences, Pittsburgh, PA). […] Wild type or mutants of ADO (or AAR) were placed into the sample cell (200 µL working volume) at a final concentration of 30 µM (60 µM for AAR) and was titrated with successive 2-µL injections of AAR protein with concentration of 500 µM (or ADO protein with concentration of 1 mM). Titrating AAR (500 µM) or ADO (1 mM) into the same buffer was performed as a control to determine the background correction. […] Injection of stearyol-CoA into the reaction buffer was performed as control to determine background correction.
The target in assay [7] is T4, acyl-acyl carrier protein (acyl-ACP) reductase from Synechococcus elongatus PCC 7942, wild type, His-tag … (Synechococcus elongatus PCC 7942, UniProt Q54765 1-341).
T4 construct: acyl-ACP reductase (AAR), Synechococcus elongatus PCC 7942, gene Synpcc7942_1594; complete protein of 341 residues; after TEV cleavage ENLYFQ probably stays at the C-terminus (surmised); also called AAR; SeAAR; not shown: His6, C-terminal, cleaved
T4 sequence (looked up): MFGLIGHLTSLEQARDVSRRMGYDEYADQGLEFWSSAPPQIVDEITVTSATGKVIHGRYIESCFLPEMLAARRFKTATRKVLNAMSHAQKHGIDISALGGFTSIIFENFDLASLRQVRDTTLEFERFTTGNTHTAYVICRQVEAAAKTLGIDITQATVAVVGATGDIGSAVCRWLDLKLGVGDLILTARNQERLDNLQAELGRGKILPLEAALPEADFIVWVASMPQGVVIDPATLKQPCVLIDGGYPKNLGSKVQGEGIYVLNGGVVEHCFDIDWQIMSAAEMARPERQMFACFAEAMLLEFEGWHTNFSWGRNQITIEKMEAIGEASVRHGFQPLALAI
The assay is described as follows: ITC; ADO (wild type or mutant) in the sample cell at 30 µM, titrated with 2-µL injections of 500 µM AAR; 25 mM Tris-HCl pH 7.5, 1 mM TCEP. The conditions noted are these: both partners purified.

For assay [8], the target named is T5, AAR (Synechococcus elongatus, UniProt Q54765).
T5 construct: modeled the complete AAR protein containing 341 amino acid residues; 22-residue C-terminal peptide with His6 (G + […]) (C, cleaved yes); made in house; host or cells: E. coli BL21(DE3) co-transformed with chaperone plasmid pG-KJE8
T5 sequence (Q54765 1-341): T4 sequence (looked up)
As to the kind of experiment: ITC binding of ADO (wild type and mutants) with AAR. Also noted: species or system Synechococcus elongatus PCC 7942.
Description: as §1

Assay [9] deals with T6, acyl-ACP reductase from Synechococcus elongatus PCC 7942, C294S mutant (Synechococcus elongatus PCC 7942, UniProt Q54765 1-341, C294S).
T6 construct: acyl-ACP reductase (AAR), Synechococcus elongatus PCC 7942, gene Synpcc7942_1594; complete protein of 341 residues; also called AAR C294S; AAR_(stearoyl-CoA); source: E. coli BL21(DE3), purified (same protocol as wild-type AAR); incubated with stearoyl-CoA before ADO was added; not shown: His6, C-terminal, cleaved
T6 sequence (looked up): T4 sequence (looked up) with C294S
As to the kind of experiment: crystal structure; AAR incubated with stearoyl-CoA (1:3), then with ADO (1:1), gel filtration; crystals in 0.1 M HEPES pH 7.5, 20% PEG8000; NADPH form by soaking. The conditions noted are these: both partners purified. A general note: In gel filtration, larger molecules generally elute earlier.

Description for AAR-wt: as §1

For `[K+]` [K^+], in the assay on AAR [1], the “stimulation of AAR activity by monovalent metal ions” value is on record as 10–20 fold. The “binding of metal ion with AAR (in words)” value is listed as “failed to detect signs of AAR binding K^+ ions” in the assay on AAR [2] and “do not stably/directly bind AAR” in the assay on AAR [2] (listed as K+).
Take `CCCCCCCCCCCCCCCCCC(=O)SCCNC(=O)CCNC(=O)[C@H](O)C(C)(C)COP(=O)(O)OP(=O)(O)OC[C@H]1O[C@@H](n2cnc3c(N)ncnc32)[C@H](O)[C@@H]1OP(=O)(O)O` [stearoyl-CoA, stearoyl-coenzyme A]: the Kd on AAR-wt amounted to 2.3 ± 0.38 µM.
“ADO wild type: aldehyde-deformylating oxygenase from Synechococcus elongatus PCC 7942, wild type recombinant protein”: the results for the “heptadecane product yield of wild-type ADO compared with triple mutant E196A/E200A/D201A of ADO” value in assay [3] (listed as wild type ADO) and in assay [3] (listed as wild-type ADO) were “more than twice” and “two times more product”, respectively.

B1: acyl-acyl carrier protein (acyl-ACP) reductase from Synechococcus elongatus PCC 7942, wild type, His-tag removed (enzyme)
chain: T4 sequence (looked up)
B1 showed a Ka in [4] of 496000 M⁻¹.

B2: AAR Y247F: AAR single mutant Y247F (protein)
chain: T4 sequence (looked up) with Y247F
modifications: left off: His6, C-terminal, cleaved
B2 came in with an Octadecanal yield in assay [5] of 61.1 ± 6.76 µg/mL. For the same molecule, in assay [5] (source data of Table 3, +K+), the “Octadecanal yield, EVERAGE” value is on record as 61.0928; the “Octadecanal yield, single data (data1-data4)” value was 68.55 and 59.38 and 55.3483. The “binding of AAR mutant with ADO (in words)” value with ADO is reported as “almost the same as that of AAR wild type”. Further, the “binding of AAR mutant with stearoyl-CoA (in words)” value in [6] was “decreased binding affinity”. In addition, in assay [6] (listed as Y247F mutant), the “binding of AAR mutant with stearoyl-CoA (in words)” value is reported as “reduced binding affinity with stearoyl-CoA”.

B3: aldehyde-deformylating oxygenase from Synechococcus elongatus PCC 7942, D201A mutant (enzyme, UniProt Q54764 1-231, looked up)
chain: T2 chain with D201A
notes: aldehyde-deformylating oxygenase (ADO), Synechococcus elongatus PCC 7942, gene Synpcc7942_1593; Made by PCR on pET24a-ADO; also called ADO D201A; source: E. coli BL21(DE3), purified (same protocol as wild-type ADO); not shown: His6, C-terminal, cleaved
Regarding B3, the Kd in [7] was 4.9 ± 1.4 µM.

B4: ADO E196A/E200A/D201A (protein)
chain: T2 chain with E196A, E200A, D201A
modifications: left off: His6, C-terminal, cleaved
Consider B4, for which the “binding of ADO mutant with AAR (in words)” value with AAR [8] was “completely lose their capability to bind AAR; also recorded: completely abolished the capability of ADO to bind with AAR”. Moreover, the “yield of octadecanal compared with the wild type ADO reaction system (in words)” value in assay [3] (AAR incubated with wild type or triple mutant ADO) is listed as “similar”.

B5: aldehyde-deformylating oxygenase from Synechococcus elongatus PCC 7942, E211A mutant (enzyme, UniProt Q54764 1-231, looked up)
chain: T2 chain with E211A
notes: aldehyde-deformylating oxygenase (ADO), Synechococcus elongatus PCC 7942, gene Synpcc7942_1593; Made by PCR on pET24a-ADO; also called ADO E211A; source: E. coli BL21(DE3), purified (same protocol as wild-type ADO); not shown: His6, C-terminal, cleaved
For B5, in [7], the equilibrium dissociation constant (Kd) amounted to 2.8 ± 0.85 µM.

B6: aldehyde-deformylating oxygenase from Synechococcus elongatus PCC 7942, E208A mutant (enzyme, UniProt Q54764 1-231, looked up)
chain: T2 chain with E208A
notes: aldehyde-deformylating oxygenase (ADO), Synechococcus elongatus PCC 7942, gene Synpcc7942_1593; Made by PCR on pET24a-ADO; also called ADO E208A; source: E. coli BL21(DE3), purified (same protocol as wild-type ADO); not shown: His6, C-terminal, cleaved
In turn, B6 registered a dissociation constant Kd in assay [7] of 14.8 ± 3.7 µM.

B7: aldehyde-deformylating oxygenase from Synechococcus elongatus PCC 7942, wild type, His-tag removed (enzyme, UniProt Q54764 1-231, looked up)
chain: T2 chain
notes: aldehyde-deformylating oxygenase (ADO), Synechococcus elongatus PCC 7942, gene Synpcc7942_1593; Constructed and expressed 'similarly as' SeAAR in the modified pET24a (C-terminal TEV site and His6 peptide); ENLYFQ probably stays after cleavage (surmised); also called ADO; SeADO; not shown: His6, C-terminal, cleaved
As for B7, in assay [9], the binding result was “binds”.

By Kd is commonly meant the constant that tells how readily two partners part at equilibrium.
